Test results reported in patent publication US6949506B2, “Relaxin-like factor and methods and uses thereof” (BAS Medical, Inc., priority 1995, dated 2005).
Positions of bridges follow the written chain, without caps; N, C: chain ends. Chains are numbered I, II in the order given. No end group written: not given here.

B1: human relaxin (ligand)
chain 1: QLYSALANKCCHVGCTKRSLARFC
chain 2: DSWMEEVIKLCGRELVRAQIAICGMSTWS
B2: human relaxin-like factor (RLF), synthetic (ligand)
chain 1: AAATNPARYCCLSGCTQQDLLTLCPY
chain 2: PTPEMREKLCGHHFVRALVRVCGGPRWSTEA

How the values were obtained:
[1] = system: collagen expression, rheumatoid synovial fibroblasts (Strain No. RSF64); experiment: Inhibition of collagen expression by synovial fibroblasts; type: cell-based, human
Experimental: The method for detecting and measuring collagen formation in the presence of relaxin described in Unemori and Amento, 1990, J. Biol. Chem. 265:10681-685 has been modified as follows to determine the ability of RLF, in vitro, to modulate the expression of collagen. Materials and Methods. Rheumatoid synovial fibroblasts (Strain No. […] The cells were simultaneously biosynthetically labelled with ^3H=[…] μCi/ml) in the presence of ascorbate and BAPN. After 24 hours, the conditioned media were collected and electrophoresed on 4-12% polyacrylamide gels (NOVEX) under reducing conditions. Gels were enhanced, dried, and exposed to X-ray films for 1-2 weeks. Collagen bands were identified on the X-ray films as bacterial collagenase-sensitive, proline-incorporating bands between 95-200 kDa. Band density was quantified by scanning densitometry and used as estimates of collagen expression.

[2] = system: crude membrane preparations of leg muscles, kidneys, liver, brain, and uterus; experiment: Tissue specificity of 125I-RLF binding; design: species or system mouse; details: skeletal muscle, kidney and liver tested, female estrogen primed mice
Experimental: FIG. 6. FIG. 6 depicts the tissue distribution of RLF receptors in female estrogen primed mice as measured in vitro in a receptor-binding assay.
Tissue specificity was determined using crude membrane preparations of leg muscles, kidneys, liver. brain, and uterus (of estrogen primed mice). The crude membranes were prepared as described for relaxin. Binding was based on protein concentration determined by Lowry.

[3] = biological target: RLF receptor of mouse brain (mouse); experiment: displacement of 125I-RLF tracer, mouse brain crude membranes; amount of competitor at 50% binding
[4] = biological target: RLF receptor of mouse uterus (mouse); experiment: displacement of 125I-RLF tracer, mouse uterus crude membranes; amount of competitor at 50% binding
RLF receptor of mouse uterus (mouse), sequence (Q91ZZ5 whole entry): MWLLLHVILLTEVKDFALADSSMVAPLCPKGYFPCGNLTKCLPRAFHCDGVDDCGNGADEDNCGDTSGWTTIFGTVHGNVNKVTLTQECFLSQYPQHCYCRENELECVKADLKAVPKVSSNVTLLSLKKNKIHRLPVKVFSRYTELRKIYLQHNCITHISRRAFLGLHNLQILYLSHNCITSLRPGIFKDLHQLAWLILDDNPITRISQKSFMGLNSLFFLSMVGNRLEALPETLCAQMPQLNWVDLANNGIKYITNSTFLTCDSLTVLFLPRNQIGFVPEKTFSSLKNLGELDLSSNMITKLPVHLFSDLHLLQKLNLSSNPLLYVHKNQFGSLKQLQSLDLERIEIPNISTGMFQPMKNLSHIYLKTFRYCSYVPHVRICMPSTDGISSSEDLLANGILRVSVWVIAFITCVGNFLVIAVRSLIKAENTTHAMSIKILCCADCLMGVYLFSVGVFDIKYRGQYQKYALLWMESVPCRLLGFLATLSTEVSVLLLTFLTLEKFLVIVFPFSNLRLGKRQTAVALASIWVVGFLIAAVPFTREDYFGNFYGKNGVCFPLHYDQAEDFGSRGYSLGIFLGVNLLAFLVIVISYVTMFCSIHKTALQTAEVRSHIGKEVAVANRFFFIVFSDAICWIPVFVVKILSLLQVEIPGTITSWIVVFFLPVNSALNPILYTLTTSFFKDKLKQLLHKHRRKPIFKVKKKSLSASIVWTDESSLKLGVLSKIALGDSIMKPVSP

[5] = biological target: mouse brain relaxin receptor (mouse); experiment: displacement of porcine relaxin tracer, mouse brain crude membranes; amount of competitor at 50% binding
[6] = biological target: mouse uterine relaxin receptor (mouse); experiment: displacement of porcine relaxin tracer, mouse uterus crude membranes; amount of competitor at 50% binding
mouse uterine relaxin receptor (mouse), sequence (Q6R6I7 whole entry): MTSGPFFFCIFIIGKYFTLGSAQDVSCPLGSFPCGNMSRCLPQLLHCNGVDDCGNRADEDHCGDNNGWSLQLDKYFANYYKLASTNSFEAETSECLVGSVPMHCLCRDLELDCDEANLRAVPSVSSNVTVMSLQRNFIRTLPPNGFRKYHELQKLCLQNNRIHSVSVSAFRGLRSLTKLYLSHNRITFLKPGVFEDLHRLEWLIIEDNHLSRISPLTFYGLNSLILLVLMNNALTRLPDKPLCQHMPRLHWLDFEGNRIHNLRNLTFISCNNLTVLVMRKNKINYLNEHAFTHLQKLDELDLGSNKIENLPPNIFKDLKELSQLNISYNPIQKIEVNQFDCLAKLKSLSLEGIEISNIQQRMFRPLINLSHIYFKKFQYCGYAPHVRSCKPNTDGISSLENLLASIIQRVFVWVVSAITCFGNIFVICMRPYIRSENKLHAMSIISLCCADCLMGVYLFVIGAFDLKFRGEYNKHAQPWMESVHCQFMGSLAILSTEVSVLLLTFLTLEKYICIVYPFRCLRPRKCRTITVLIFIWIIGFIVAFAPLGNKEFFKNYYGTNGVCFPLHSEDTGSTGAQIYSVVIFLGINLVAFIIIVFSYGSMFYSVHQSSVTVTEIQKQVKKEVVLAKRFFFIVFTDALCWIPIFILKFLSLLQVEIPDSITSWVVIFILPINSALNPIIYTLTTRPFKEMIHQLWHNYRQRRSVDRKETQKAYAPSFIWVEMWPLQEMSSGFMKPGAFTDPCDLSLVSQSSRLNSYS

[7] = biological target: mouse brain relaxin receptor (mouse); experiment: displacement of porcine relaxin tracer, mouse brain crude membranes

Molecule | increase of collagen expression over untreated fibroblasts [1] [fold] | tissues showing specific binding [2] | 50% Binding [3] [ng] | 50% Binding [4] [ng] | 50% Binding [5] [ng] | 50% Binding [6] [ng] | excess that displaces 50% of the relaxin tracer [7] [fold excess]
TGF-β [reference compound] | 3.75 | – | – | – | – | – | –
^125I-RLF: 125I-labeled RLF used as tracer (chain 1 AAATNPARYCCLSGCTQQDLLTLCPY; chain 2 PTPEMREKLCGHHFVRALVRVCGGPRWSTEA; disulfide I:11-II:10; cysteine pairing not given here; also: 125I-labeled (site not given here)) | – | only the brain- and the uterus membrane preparation showed specific binding | – | – | – | – | –
B1 | – | – | 1000 | 800 | 1 | 1 | –
B2 | – | – | 0.3 | 0.3 | 200 | 10000 | 100
